Measured values from paper PMC11615228, “3D variability analysis reveals a hidden conformational change controlling ammonia transport in human asparagine synthetase” (Nature Communications, 2024).
Positions count from the first letter of the chain named. Numbers in names are those of the source.

B1: wild-type (WT) human asparagine synthetase (ASNS) (enzyme, UniProt P08243 1-561, looked up)
chain: MCGIWALFGSDDCLSVQCLSAMKIAHRGPDAFRFENVNGYTNCCFGFHRLAVVDPLFGMQPIRVKKYPYLWLCYNGEIYNHKKMQQHFEFEYQTKVDGEIILHLYDKGGIEQTICMLDGVFAFVLLDTANKKVFLGRDTYGVRPLFKAMTEDGFLAVCSEAKGLVTLKHSATPFLKVEPFLPGHYEVLDLKPNGKVASVEMVKYHHCRDVPLHALYDNVEKLFPGFEIETVKNNLRILFNNAVKKRLMTDRRIGCLLSGGLDSSLVAATLLKQLKEAQVQYPLQTFAIGMEDSPDLLAARKVADHIGSEHYEVLFNSEEGIQALDEVIFSLETYDITTVRASVGMYLISKYIRKNTDSVVIFSGEGSDELTQGYIYFHKAPSPEKAEEESERLLRELYLFDVLRADRTTAAHGLELRVPFLDHRFSSYYLSLPPEMRIPKNGIEKHLLRETFEDSNLIPKEILWRPKEAFSDGITSVKNSWFKILQEYVEHQVDDAMMANAAQKFPFNTPKTKEGYYYRQVFERHYPGRADWLSHYWMPKWINATDPSARTLTHYKSAVKA
notes: human asparagine synthetase (glutamine-hydrolysing), unmodified recombinant enzyme; the N-terminal residue is Cys-1 (initiator Met removed) and the C-terminal tail ends at residue 560; Cys-1 is C2 in P08243); No tag is stated for the WT enzyme; the variants were purified on Ni-NTA, so the WT construct may also carry a His tag; Residues 201-220, 465-475 and 539-560 have no density in the EM map …
B2: R142I ASNS variant (human asparagine synthetase with Arg-142 replaced by isoleucine) (enzyme, UniProt P08243 1-561, looked up)
chain: B1 chain with R143I
notes: human asparagine synthetase with R142I; only elution from Ni-NTA with imidazole is described; also called R142I variant; ASNS R142I; source: Sf9 cells (baculovirus), purified (Ni-NTA, PD-10 buffer exchange)

Target: the molecule itself
Assay: cryo-EM structure; single-particle cryo-EM of the purified enzyme without ligands; 25 mM Tris-HCl pH 8.0, 200 mM NaCl, 5 mM DTT; WT at 9.0 mg/mL, R142I at 3.2 mg/mL; grids made at 4 °C; C2 symmetry imposed

Row | Protein | stoichiometry N
1 | B1 | 2
2 | B2 | 2
